Target: T1, N-terminus tagged ILDR2
T1 sequence (Q71H61 whole entry, species assumed, looked up): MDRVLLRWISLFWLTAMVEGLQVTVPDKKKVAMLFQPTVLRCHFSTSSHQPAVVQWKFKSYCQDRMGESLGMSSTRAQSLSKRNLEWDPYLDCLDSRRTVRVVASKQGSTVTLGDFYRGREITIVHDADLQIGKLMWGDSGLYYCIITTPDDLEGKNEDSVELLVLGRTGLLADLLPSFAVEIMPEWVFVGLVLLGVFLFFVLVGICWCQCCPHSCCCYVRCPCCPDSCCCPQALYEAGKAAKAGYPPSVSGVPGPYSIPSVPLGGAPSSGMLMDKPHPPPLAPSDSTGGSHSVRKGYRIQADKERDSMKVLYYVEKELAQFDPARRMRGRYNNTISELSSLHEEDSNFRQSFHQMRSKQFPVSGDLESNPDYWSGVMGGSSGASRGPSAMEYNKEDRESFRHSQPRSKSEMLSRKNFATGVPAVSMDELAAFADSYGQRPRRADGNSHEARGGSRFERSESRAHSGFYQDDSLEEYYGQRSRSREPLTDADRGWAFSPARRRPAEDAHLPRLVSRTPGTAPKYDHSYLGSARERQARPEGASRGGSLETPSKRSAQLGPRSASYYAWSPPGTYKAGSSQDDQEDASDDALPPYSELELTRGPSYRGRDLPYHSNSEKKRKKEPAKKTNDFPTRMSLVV

B1: V5-tagged PERK (protein)
chain: VAPARSLLAPASETVFGLGAAAAPTSAARVPAVATAEVTVEDAEALPAAAGEPESRATEPDDDVELRPRGRSLVIISTLDGRIAALDAENDGKKQWDLDVGSGSLVSSSLSKPEVFGNKMIIPSLDGDLFQWDRDRESMEAVPFTVESLLESSYKFGDDVVLVGGKSLITYGLSAYSGKLRYICSALGCRRWDSDEMEEEEDILLLQRTQKTVRAVGPRSGSEKWNFSVGHFELRYIPDMETRAGFIESTFKPGGNKEDSKIISDVEEQEATMLDTVIKVSVADWKVMAFSRKGGRLEWEYQFCTPIASAWLVRDGKVIPISLFDDTSYTASEEALGDEEDIVEAARGATENSVYLGMYRGQLYLQSSVRVSEKFPTSPKALESVNGENAIIPLPTIKWKPLIHSPSRTPVLVGSDEFDKCLSNDKYSHEEYSNGALSILQYPYDNGYYLPYYKRERNKRSTQITVRFLDSPHYSKNIRKKDPILLLHWWKEIFGTILLCIVATTFIVRRLFHPQPHRQRKESETQCQTESKYDSVSADVSDNSWNDMKYSGYVSRYLTDFEPIQCMGRGGFGVVFEAKNKVDDCNYAIKRIRLPNRELAREKVMREVKALAKLEHPGIVRYFNAWLETPPEKWQEEMDEIWLKDESTDWPLSSPSPMDAPSVKIRRMDPFSTKEQIEVIAPSPERSRSFSVGISCGQTSSSESQFSPLEFSGTDCGDNSDSADAAYNLQDSCLTDCEDVEDGTVDGNDEGHSFELCPSEASPYTRSREGTSSSIVFEDSGCGNASSKEEPRGNRLHDGNHYVNKLTDLKCSSSRSSSEATTLSTSPTRPTTLSLDFTKNTVGQLQPSSPKVYLYIQMQLCRKENLKDWMNRRCSLEDREHGVCLHIFLQIAEAVEFLHSKGLMHRDLKPSNIFFTMDDVVKVGDFGLVTAMDQDEEEQTVLTPMPAYATHTGQVGTKLYMSPEQIHGNNYSHKVDIFSLGLILFELLYPFSTQMERVRILTDVRNLKFPLLFTQKYPQEHMMVQDMLSPSPTERPEATDIIENAIFENLEFPGKTVLRQRSRSMSSSGTKHSRQPSCSYSPLPGN
cleavage of ILDR2 (western blot of ILDR2 fragments after co-transfection): N-terminus-tagged ILDR2 was also decreased by PERK, but cleaved ILDR2 was not detected

Reference: US20150190466
